Laboratory results reported in patent US20130302346A1 (LEXICON PHARMACEUTICALS, published 2013).

Columns and labels:
Experiment in all cases: ELISA on conditioned medium of HEK293F transfected with the NOTUM construct (Example 6.7)
H-M = biological target: T1, H-M
T1 construct: Drawn on the sheet as human N-terminal part and mouse C-terminal part; Produced by transient transfection of HEK293F and used as conditioned medium; also called Human-mouse chimeric NOTUM
T1 single chain: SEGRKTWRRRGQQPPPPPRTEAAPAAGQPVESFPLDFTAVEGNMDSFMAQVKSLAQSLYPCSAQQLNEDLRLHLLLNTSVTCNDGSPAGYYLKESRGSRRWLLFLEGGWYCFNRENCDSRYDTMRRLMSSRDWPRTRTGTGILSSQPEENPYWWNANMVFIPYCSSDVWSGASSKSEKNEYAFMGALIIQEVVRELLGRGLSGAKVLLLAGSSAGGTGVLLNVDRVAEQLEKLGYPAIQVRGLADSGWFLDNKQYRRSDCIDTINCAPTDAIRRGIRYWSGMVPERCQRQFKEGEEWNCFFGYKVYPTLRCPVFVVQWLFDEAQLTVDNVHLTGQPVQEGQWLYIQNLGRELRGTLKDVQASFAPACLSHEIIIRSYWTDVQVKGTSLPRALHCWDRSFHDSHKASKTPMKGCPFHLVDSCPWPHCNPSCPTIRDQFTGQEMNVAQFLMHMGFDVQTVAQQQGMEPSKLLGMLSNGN
Source text: (§1) The sequences of those proteins are shown in Section 7 (Table of Sequences). The conditioned media were used in ELISA format to determine antibody specificity. […] Within this region, mouse and human NOTUM differ at five positions (R115K, D141S. R150K, R154H, and Y171H, based on the human sequence numbering). Human NOTUM point mutants were generated by transient transfection of constructs expressing human NOTUM with the mouse amino acid at each of these five positions and the point mutants were all shown to be functional in the OPTS assay.

H(N96D) = biological target: T2, H(N96D)
T2 construct: Human NOTUM with N96D, marked inside the Q47-M177 box on the sheet; also called Human NOTUM N96D
T2 single chain: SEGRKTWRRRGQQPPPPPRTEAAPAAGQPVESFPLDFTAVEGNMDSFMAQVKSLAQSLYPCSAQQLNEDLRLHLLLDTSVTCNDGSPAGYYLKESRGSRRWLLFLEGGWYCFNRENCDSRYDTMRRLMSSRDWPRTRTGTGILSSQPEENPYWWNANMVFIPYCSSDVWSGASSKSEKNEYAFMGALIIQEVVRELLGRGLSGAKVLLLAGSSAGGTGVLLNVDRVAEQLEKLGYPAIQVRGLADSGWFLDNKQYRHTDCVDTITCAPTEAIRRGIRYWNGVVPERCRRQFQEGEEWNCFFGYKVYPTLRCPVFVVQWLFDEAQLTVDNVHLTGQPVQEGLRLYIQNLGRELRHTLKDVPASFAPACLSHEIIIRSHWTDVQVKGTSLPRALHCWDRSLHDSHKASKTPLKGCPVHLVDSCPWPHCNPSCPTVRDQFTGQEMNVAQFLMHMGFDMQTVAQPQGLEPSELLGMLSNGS
Source text: as §1

H(Q47) = biological target: T3, H(Q47)
T3 construct: Drawn on the sheet as a signal peptide (SP) followed by human NOTUM starting at Q47; CD33 signal peptide'; also called Human NOTUM (delta 1-46) with CD33 signal peptide
T3 single chain: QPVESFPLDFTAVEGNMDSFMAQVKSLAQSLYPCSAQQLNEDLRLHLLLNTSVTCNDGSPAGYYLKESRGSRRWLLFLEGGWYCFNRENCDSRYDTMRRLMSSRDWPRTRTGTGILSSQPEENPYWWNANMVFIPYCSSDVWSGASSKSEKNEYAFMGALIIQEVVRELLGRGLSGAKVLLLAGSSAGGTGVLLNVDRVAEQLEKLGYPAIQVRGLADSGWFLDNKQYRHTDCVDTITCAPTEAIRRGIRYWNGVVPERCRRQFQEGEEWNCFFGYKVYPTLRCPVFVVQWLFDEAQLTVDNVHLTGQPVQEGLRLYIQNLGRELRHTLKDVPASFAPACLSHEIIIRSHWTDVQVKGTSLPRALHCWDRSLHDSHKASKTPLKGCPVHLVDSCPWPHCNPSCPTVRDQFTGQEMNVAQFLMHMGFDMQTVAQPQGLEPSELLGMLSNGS
Source text: as §1

H-M-H = biological target: T4, H-M-H
T4 construct: Drawn on the sheet as human up to the M177 line, a mouse middle segment, then a human C-terminal part; Conditioned medium from transfected HEK293F; also called Human-mouse-human chimeric NOTUM
T4 single chain: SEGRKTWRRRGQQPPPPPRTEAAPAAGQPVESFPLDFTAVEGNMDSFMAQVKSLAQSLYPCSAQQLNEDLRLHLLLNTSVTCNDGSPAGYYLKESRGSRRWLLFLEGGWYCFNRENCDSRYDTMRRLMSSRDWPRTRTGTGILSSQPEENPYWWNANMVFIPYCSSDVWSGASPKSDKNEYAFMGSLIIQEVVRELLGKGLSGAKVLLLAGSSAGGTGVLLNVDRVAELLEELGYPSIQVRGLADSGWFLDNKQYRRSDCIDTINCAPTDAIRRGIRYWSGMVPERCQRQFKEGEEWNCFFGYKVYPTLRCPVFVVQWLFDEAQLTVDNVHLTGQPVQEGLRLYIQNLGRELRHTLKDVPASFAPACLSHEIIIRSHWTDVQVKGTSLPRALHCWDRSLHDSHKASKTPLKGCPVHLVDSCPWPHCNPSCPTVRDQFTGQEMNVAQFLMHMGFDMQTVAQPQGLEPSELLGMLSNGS
Source text: as §1

Measured: binding result

B1: MAb 1.802 (antibody, V domains shown)
VH: EVQLVESGGGLVKPGGSLKLSCAASGFTFSDYGMHWFRQAPEKGLEWVAYISSGSRTVYYADTVKGRFTISRDNAKNTLSLQMTSLRSEDTAMYYCARKHYNGGYFDVWGTGTTVTVSS
VL: DIVLTQSPASLAVSLGQRATISCRASKIVSTSGYSYMHWYQQKPGQPPKLLIYLASNLESGVPARFSGSGSGTDFTLNIHPVEEEDAATYYCQHSRELPPTFGSGTKLEIKR
notes: Mouse monoclonal antibody from Campaign 1 (raised against human NOTUM), IgG1
binds: all assays above

B2: MAb 1.846 (antibody, IgG2b, V domains shown)
VH: EVQLVESGGDLVKPGGSLKLSCAASGFTFSDYGMHWLRQAPEKGLEWVAYISSGSTTLSYANTMKGRFTISRDNAKKTLSLQMTSLRSEDTAIYYCARKNYNGGYFDVWGTGTTVTVSS
VL: DIVLTQSPASLVVSLGQRATISCRASKSVSESGYSYMHWYQQKPGQPPKLLIYLASNLESGVPARFSGSGSGTDFTLNIHPVEEGDATTYYCQHSRVLPPTFGSGTKLEIKR
notes: Mouse monoclonal antibody from Campaign 1, IgG2b
binds: all assays above

B3: MAb 1.815 (antibody, IgG1, V domains shown)
VH: DVQLLESGGGLVQPGGSRKLSCAASGFTFSDFGMHWVRQAPEKGLEWVAYSSSGGTTVYYADTVKGRLTLSRDNSKNTLFLEMTSLRSEDTAMYYCARASYDGGYFDCWGQGTSLTVSS
VL: DIVLTQSPASLAVSLGQRATISCRASKSVSTSGYSYIHWYQQKPGQPPKLLIYLASDLESGVPARFSGSGSGAAFTLNIHPVEEEDAATYYCHHSRELPFTFGSGTKLEIKR
notes: Mouse monoclonal antibody from Campaign 1, IgG1
binds: all assays above
